Experiments:
[1] = test system: Cxcl1 mRNA from PECs; test: PECs stimulated with supernatant of dead SL4 cells containing antibody, Cxcl1 mRNA by RT-qPCR; format: cell-based, mouse; conditions: PECs stimulated 2 hours with culture supernatant of SL4 cells containing 55F3, vs control IgG, FIG. 12(b)
Experimental: In FIG. 12(b), PECs (2×10^5 cells) were stimulated with a supernatant of dead SL4 cells comprising the 55F3 antibody or control IgG. After the stimulation for 2 hours, the expressed Cxcl1 mRNA was quantified by RT-qPCR. n=3, and Sup: culture supernatant. In FIG. 12(c), TCTP WT SL4 cells or TCTP KO SL4 cells ([…]) were subcutaneously transplanted into C57BL/6 mice. After the transplantation, DHA (50 mg/kg) or DMSO was intraperitoneally administered to the mice every day (n=6). In FIG. 12(d), (left view) the expression level of TCTP in the interstitial area of normal large intestinal tissues was compared with the expression level of TCTP in the interstitial area of colorectal cancer tissues. In FIG. 12(d), (right view) a normal colon crypt was compared with a neoplastic lesion. […] Spearman r: spearman correlation coefficients. *P<0.05, **P<0.01. Regarding FIG. 12(b), repeated measures one-way ANOVA with Dunnett's multiple comparisons test. Regarding FIG. 12(c), repeated measures one-way ANOVA with Tukey's multiple comparisons test. Regarding FIG. 12(d), unpaired two-sided Student's t-test. NS indicates “no significant difference.” The data are shown as a mean value ±[…] (s.e.m.).
RAW264.7 cells, the mouse melanoma cell line B16F10 cells, the mouse fibrosarcoma cell line Meth-A cells, and HEK293T cells were obtained from RIKEN BioResource Center (Japan). […]

[2] = target: T1, mouse TCTP (Mus musculus, UniProt P63028); test: Immunoblotting of whole cell lysate of TCTP WT / TCTP KO SL4 cells using the 55F3 monoclonal antibody; format: binding; conditions: lysate of TCTP WT vs TCTP KO SL4 cells, FIG. 12(a)
T1 construct: preparing the whole cell lysate of TCTP WT SL4 cells (WT) or TCTP KO SL4 cells (KO), followed by immunoblotting; endogenous in cells; host or cells: SL4 mouse colon carcinoma cells (TCTP WT; TCTP KO as negative control)
T1 sequence (P63028 1-172): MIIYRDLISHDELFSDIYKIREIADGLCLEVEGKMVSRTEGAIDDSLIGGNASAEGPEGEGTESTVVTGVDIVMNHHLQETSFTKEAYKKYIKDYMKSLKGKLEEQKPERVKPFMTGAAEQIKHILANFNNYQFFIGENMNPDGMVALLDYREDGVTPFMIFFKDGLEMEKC
Experimental: In FIG. 12(b), PECs (2×10^5 cells) were stimulated with a supernatant of dead SL4 cells comprising the 55F3 antibody or control IgG. After the stimulation for 2 hours, the expressed Cxcl1 mRNA was quantified by RT-qPCR. n=3, and Sup: culture supernatant. In FIG. 12(c), TCTP WT SL4 cells or TCTP KO SL4 cells ([…]) were subcutaneously transplanted into C57BL/6 mice. After the transplantation, DHA (50 mg/kg) or DMSO was intraperitoneally administered to the mice every day (n=6). In FIG. 12(d), (left view) the expression level of TCTP in the interstitial area of normal large intestinal tissues was compared with the expression level of TCTP in the interstitial area of colorectal cancer tissues. In FIG. 12(d), (right view) a normal colon crypt was compared with a neoplastic lesion. […] Spearman r: spearman correlation coefficients. *P<0.05, **P<0.01. Regarding FIG. 12(b), repeated measures one-way ANOVA with Dunnett's multiple comparisons test. Regarding FIG. 12(c), repeated measures one-way ANOVA with Tukey's multiple comparisons test. […]
Immunoblot analysis was performed according to the previous report (Inoue et al., Nature 434, 243-249, doi: 10.1038/nature03308 (2005)). β-Actin (cat# A5441) was purchased from Sigma-Aldrich. […] Immunoblotting signals were detected by FUSION Solo S (Vilber-Lourmat), and were then analyzed by FUSION Capt Advanced software (Vilber-Lourmat). […]

B1: 55F3: Mouse monoclonal antibody against human TCTP peptide SEQ ID NO: 25; CDRs SEQ ID NO: 1-6, VH SEQ ID NO: 19, VL SEQ ID NO: 22 (antibody, listed as Mus musculus)
VH: MRVLILLWLFTAFPGILSDVQLQESGPGLVKPSQSLSLTCTATGYSIASDYAWNWIRQFPGNKLEWMGYINYSGSTGYNPSLKSRISITRDTSKNQFFLQLNSVTTEDTATYYCARFEAGYWGQGTTLTVSSAKTTPPSVYPLAPGSAAQTNSMVTLGCLVKGYFPEPVT
VL: MDMRTPAQFLGILLLWFPGIKCDIKMTQSPSSMSASLGERVTITCKASQDINRYLSWFQQKPGKSPKTLIYRANRLVDGVPSRFSGSGSGQDYSLTISSLEYGDMGIYYCLQYNEFPLTFGAGTKLELKRADAAPTVSIFPPSSEQLTSGGASVVCFLN
- expression of Cxcl1 mRNA from PECs [1]: suppressed
- species crossing property to mouse TCTP [2]: has species crossing property to mouse TCTP
